One may read the stoichiometry N as the number of molecules, sites or subunits per partner or assembly.

The experiment deals with amyloid-β (Aβ) peptide (human (endogenous in brain tissue)) (UniProt P05067). The experiment can be described thus: 2D-PAGE immunoblot; Aβ immunoprecipitated (4G8 and 6E10) from tris- and FA-soluble fractions of human frontal cortex, eluted in rehydration buffer (8.3 M urea, 0.5% CHAPS, 20 mM DTT), IEF pH 3-10, 4-12% Bis-Tris gel, blot with 6E10; oligomer size assigned from the band's mass. (In western blotting, separated proteins are transferred to a membrane and probed.)

Where “and” joins values, the source holds several entries; their conditions need not be identical. Identical values can stand only once.

Regarding “amyloid-β (Aβ) peptide (from UniProt P05067 672-713) (peptide; other documents disagree on this pair)”, the stoichiometry N was 5 and 6.

(Values after article PMC8786784.)
